{
  "source": "patent US20250289873A1",
  "about": "(published 2025)",
  "binders": {"B1": {"name": "ATX-P-574 (antibody, V domains shown)", "VH": "EVQLVESGGGLVQRGGSLRLSCVASGFTFSSYAMSWVRQAPGKGLEWVSVISGSGGTTYYADSVKGRFTISRDDSKKTLYLQMNSLRAEDTAVYYCAKRGDYGDYMDVWGKGTTVTVSS", "VL": "DIQMTQSPSSVSASVGDRVTITCRASQGITTWLAWYQQKPGKAPKLLIFGASSLESGVPSRFSGSGSGTDFTLTISSLQPEDFATYYCQQANSFPWTFGQGTKVEIKR"}, "B2": {"name": "ATX-P-572 (antibody, V domains shown)", "VH": "QVQLQQSGPGLVKPSQTLSLTCAISGDSVSSNSAAWNWIRQSPSRGLEWLGMTYYRSKWYSVFAVSVKSRITINTDTSKNQFSLQLNSVTPEDTAVYYCAREGGIVGATPFDYWGQGTLVTVSS", "VL": "not shown"}, "B3": {"name": "ATX-P-609 (antibody, V domains shown)", "VH": "QVQLQESGPGLVKPSGTLSLTCAVSGGSISSSNWWSWVRQPPGKGLEWIGEIYHSGSTNYNPSLKSRVTISVDKSKNQFSLKLRSVTAADTAVYYCARDQLSSGPTDAFDIWGQGTMVTVSS", "VL": "EIVMTQSPATLSVSPGERATLSCRASQSVSSNLAWYQQKPGQAPRLLIYGASTRATGIPVRFSGSGSGTQFTLTISSLQSEDFAVYYCQQYDNWRTFGQGTKLEIKR"}, "B4": {"name": "ATX-P-562 (antibody, V domains shown)", "VH": "QVQLQQSGPGLVKSSQTLSLTCAISGDTVSSNSAAWNWIRQSPSRGLEWLGRTFYRSRWSAAYAASVSSRITINPDTSKNQFSLQLTSVTPADTAVYYCAREGVGSSTGFDYWGQGTLVTVSS", "VL": "B1 VL with V15I, Q27K, T30S, T31I, L46V, F49S, G50A, E55Q, V58A, W96P"}, "B5": {"name": "ATX-P-560 (antibody, V domains shown)", "VH": "QVQLQQSGPGLVKPSQTLSLTCAISGDSVSSNTAAWNWIRQSPSRGLEWLGRTYYRSKWYNDYAVSVKSRITINPDTSKNQFSLQLSSVTPQDTAIYYCASDNWNNGGPGFDPWGQGTLVTVSS", "VL": "B1 VL with A13T, T30S, T31S, F49S, G50A, E55Q, S77T, T85S, W96P, K103R"}, "B6": {"name": "ATX-P-579 (antibody, V domains shown)", "VH": "QVQLQESGPGLVKPSGTLSLTCAVSGASISTSNWWTWVRQPPGKGLEWIGEIYHDGSTNYSPSLQSRVTISVDKSKNQFSLTLTSVTAADTAIYYCGDFYIDVWGNGTTVTVSS", "VL": "DIQMTQSPSSLSASVGDRVTITCRASQGIRKDLGWYQQKPGKAPKRLIYTASTLQSGVPSRFSGSGSGTEFTLTISSLQPEDFATYYCLQYNNYPFTFGPGTKVDIKR"}, "B7": {"name": "ATX-P-602 (antibody, V domains shown)", "VH": "not shown", "VL": "EIVLTQSPGTLSLSPGERATLSCRASQSVSSSYLAWYQQKPGQAPRLLIYGASSRATGIPDRFSGSGSGTQFTLTISSLQSEDFAVYYCQQYGSSPWTFGQGTKVDIKR"}, "B8": {"name": "ATX-P-561 (antibody, V domains shown)", "VH": "QVQLQQSGPGLVKPSQTLSLTCAISGDSVSSNSAAWNWIRQSPSRGLEWLGRTYYRSKWYNGYAVSMKSRITINPDTSKNQFSLQLNSVTPEDTAMYYCAREGVGATTGFDYWGQGTLVTVSS", "VL": "B1 VL with V11L, T30S, T31S, A34T, F49Y, G50A, E55Q, S56G, W96P"}, "B9": {"name": "ATX-P-608 (antibody, V domains shown)", "VH": "QVQLQESGPGLVKPSGTLSLTCAVSGGSISSSNWWSWVRQSPGKGLEWIGEIYHTGSTNKKPSLKSRVIISVDKSKNQFSLKLISVNAADTAIYYCARDREGGTTEAFDIWGQGTMVTVSS", "VL": "B3 VL with K102R"}, "B10": {"name": "ATX-P-571 (antibody, V domains shown)", "VH": "QVQLQESGPGLVKPSGTLSLTCAVSGGSISSRNWWSWVRQPPGKGLEWIGEIYHGGTTNYNPSLKSRVTISVDKSKNQFSLKLSSVTAADTAVYYCARGGLRLGELSPNAFDIWGQGTMVTVSS", "VL": "DIQMTQSPSSLSASVGDRVTITCRASQSISSYLNWYQQKPGKAPKVLIYAASSLQSGIPSRFSGSGSGTDFTLTISSLQPEDFATYYCQETYSVPLTFGGGTKVEIKR"}, "B11": {"name": "ATX-P-607 (antibody, V domains shown)", "VH": "QVQLVQSGAEVKKPGASVKVSCKASGYTFTSYYMHWVRQAPGQGLEWMGIINPSGGSTSYAQKFQGRVTMTRDTSTNTVYMELSSLRSEDTAVYYCARDPEYSSAFDIWGQGTMVTVSS", "VL": "DIQMTQSPSSLSASVGDRGTITCRASQSIRSYLNWYQQKPGKAPKLLIYAASSLQSGVPSRFSGSGSGTDFTLTISSLQPEDFATYYCQQSYRTPVTFGPGTKVDIKR"}, "B12": {"name": "ATX-P-580 (antibody, V domains shown)", "VH": "QVQLQESGPGLVKPSGTLSLTCAVSGGSISTSDWWTWVRQPPGKGLEWIGEIYHSGSTNYNPSLKSRVTISVDKSKNQFSLKLSSVTAADTAVYYCADWYFDLWGRGTLVTVSS", "VL": "B6 VL with K31N, T50A, T53S, T74A, Q90H, Y91F, N93S"}, "B13": {"name": "ATX-P-570 (antibody, V domains shown)", "VH": "QVQLQESGPGLVKPSETMSLTCTVSGGSFTGYYWSWIRQPPGKGLEWIGYVHYSGGTKSNPSLKSRVTISVDTSKNQFSLKLSSVTAADTAVYYCARERYEWNSYFDYWGQGTLVTVSS", "VL": "not shown"}, "B14": {"name": "ATX-P-601 (antibody, V domains shown)", "VH": "QVQLVQSGAEVKKPGASVKVSCKASGYTFTSYYMHWVRQAPGQGLEWMGIINPSGGSTNYAQKFQGRLTMTRDTSTNTVYMELSSLRSEDTAVYYCATDQSGGMDVWGKGTTVTVSS", "VL": "DIQMTQSPSSLSASVGDRVTITCRASQSINIYLNWYQQKPEKDPKLLIYAASSLQSGVPSRFSGSGSGTDFTLTISNLQPEDFATYYCQQSYSTPITFGQGTRLEIKR"}, "B15": {"name": "ATX-P-588 (antibody, V domains shown)", "VH": "EVQLVESGGGLVQPGRSLRLSCAASGFTFEDYAMHWVRQAPGKGLEWVSGISWNSGSIGYADSVKGRFTISRDNAKKSLYLQMNSLRAEDTALYYCTKDRDDGYNYAGVFDYWGQGTLVTVSS", "VL": "not shown"}, "B16": {"name": "ATX-P-583 (antibody, V domains shown)", "VH": "QVQLVQSGAEVKKPGASVKVSCKASGYTFTTYGISWVRQAPGQGLEWMGWISAYSGNTHYAQSLQDRVTMTTDTSTSTAYMEVRSLRSDDTAVYYCAKDEGYCSSTGCLNLFDPWGQGTLVTVSS", "VL": "DIQMTQSPSSLSASVGDRVTITCRASQNIGSYLNWYQQKPGNAPKLLIYATSTLQSGVPSRFSGSGSGTDFTLIISSLHPEDFTVYYCQQSFIIPFTFGPGTKVDIKR"}, "B17": {"name": "ATX-P-597 (antibody, V domains shown)", "VH": "QVQLVQSGAEVKKPGASVKVSCKASGYTFTNYYMQWVRQAPGQGLEWLGIIDPSGGSTTYAQKFQGRVTMTRDTSTSTVHMELRSLRSEDTAVYYCARDEGTDRPGWGYWGQGTLVTVSS", "VL": "B11 VL with V15I, G19V, R30S, N34D, Q38R, P40S, R93S, V96L, P100G"}},
  "note": "Residue numbers refer to the chain shown, from its start.",
  "data": [
    {"target": "hCFHR4", "experiment": "SPR kinetics", "units": {"Kd": "nM"}, "values": [
      {"binder": "B1", "Kd": 5.9},
      {"binder": "B2", "Kd": 1.5},
      {"binder": "B3", "Kd": 4.98},
      {"binder": "B4", "Kd": 0.487},
      {"binder": "B5", "Kd": 2.12},
      {"binder": "B6", "Kd": 1.46},
      {"binder": "B7", "Kd": 33},
      {"binder": "B8", "Kd": 31.9},
      {"binder": "B9", "Kd": 0.347},
      {"binder": "B10", "Kd": 27.4},
      {"binder": "B11", "Kd": 7.97},
      {"binder": "B12", "Kd": 31.9},
      {"binder": "B13", "Kd": 10.5},
      {"binder": "B14", "Kd": 18.2},
      {"binder": "B15", "Kd": 6.87},
      {"binder": "B16", "Kd": 0.317},
      {"binder": "B17", "Kd": 0.168}
    ]}
  ]
}
